Data taken from US6855515B1, “Autoantigenic fragments, methods and assays” (Merck & Co., Inc., priority 1998, dated 2005).
Entries after “also recorded” stand apart in the source; their conditions may differ.

Assays:
[1] = biological target: SP1; conditions: Casciola-Rosen et al., 1996; cited from earlier work
[2] = test system: SP1; experiment: DNA-PKcs kinase assay (SP1 phosphorylation); type: biochemical; conditions: 12.5 nM granzyme B, 13.5 min, 37° C., then DNA, ATP
Protocol: Kinase assays were performed on intact DNA-PKcs or DNA-PKcs that had first been cleaved by granzyme B as follows. Reaction mixtures containing 10 mM Hepes pH 7.4, 2 mM MgCl2, 10 mM KCl, 2.7 mM DTT, and 50 ng DNA-PKcs in the absence or presence of 12.5 nM purified granzyme B, were incubated for 13.5 min at 37° C. Kinase reactions were subsequently initiated by adding 100 ng SP1 and 150 μM ATP containing 1.5 μCi [^32P]-ATP (3000 Ci/mmol), in the absence or presence of 10 μg/ml sheared herring sperm DNA (Promega). Samples were incubated at 37° C. for 10 min (well within the linear range of the assay, data not shown), before terminating the reactions by adding SDS gel buffer and boiling. After electrophoresing the samples on 8% SDS-PAGE, SP1 phosphorylation was detected by autoradiography, and quantitated by densitometry. Cleaved status of the kinase was confirmed in parallel by immunoblotting.

[3] = biological target: T1, granzyme B (Homo sapiens, UniProt P10144); experiment: In vitro cleavage of substrates by purified granzyme B, kcat/Km from densitometry; type: biochemical; conditions: in the presence of 10 μg/ml DNA
T1 construct: Some of these preparations were used for the further purification of granzyme B (Tschopp, 1994); endogenous in cells; host or cells: YT cells (human NK cell line), cytoplasmic granules
Protocol: cDNAs for caspase-3, caspase-7, NuMA and PARP were used to drive the synthesis of [^35S]methionine-labeled proteins by coupled transcription/translation in rabbit reticulocyte lysates. For all purified substrates, cleavage reactions were performed in buffer consisting of 50 mM Hepes pH 7.4, 10% sucrose and 5 mM DTT in the presence of the granzyme B concentrations indicated in FIG. 1. After incubation at 37° C. for 15 min, reactions were terminated and samples were electrophoresed on 10% (DNA-PKcs, NuMA), 12% (PARP) or 15% (caspases 3 and 7) SDS-polyacrylamide gels. Radiolabeled proteins and their fragments were visualized by fluorography. Intact and cleaved DNA-PKcs were visualized by immunoblotting with monoclonal antibody 18-2 (Casciola-Rosen et al., 1995).
Catalytic constant (kcat/km) values were calculated essentially as described (Casciola-Rosen et al., 1996). Briefly, subsaturating substrate concentrations were used in each in vitro reaction, and product appearance was assumed to be a first order process. […] Several appropriate densitometry systems are available, e.g. PDI Discovery System, with Quantity One Software, Protein Databases, Inc., (Huntington Station, N.Y.). kcat/Km values were calculated by fitting the dose-response data to the first order rate equation: percent substrate cleavage=100*((1^-e-((kcat*[E]/Km)*time)). […]

T1 sequence (P10144 21-247): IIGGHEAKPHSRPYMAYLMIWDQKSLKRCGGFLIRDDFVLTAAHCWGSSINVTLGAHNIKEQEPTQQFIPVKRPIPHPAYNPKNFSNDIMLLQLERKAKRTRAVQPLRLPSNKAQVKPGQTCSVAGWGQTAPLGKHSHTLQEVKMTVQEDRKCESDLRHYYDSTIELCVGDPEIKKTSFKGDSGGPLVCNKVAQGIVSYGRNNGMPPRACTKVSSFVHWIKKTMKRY

For “DNA-dependent protein kinase catalytic subunit [DNA-PKCS]”, the “kinase activity of DNA-PKcs after caspase-3 cleavage” value [1] is listed as “approximately 60 % of control levels”, the “kinase activity of DNA-PKcs after cleavage by granzyme B” value [2] is listed as “entirely abolished; also recorded: completely abrogates” and the “decrease of DNA-PKcs cleavage by granzyme B” value [3] is listed as “approximately 90%”.
